The results in this text go back to publication PMC5393062.

For orientation: Kd means the constant that tells how readily two partners part at equilibrium.

Holding throughout (experiment): fluorescence polarization
Data set [1] addresses pNOB8 ParA (Sulfolobus NOB8H2, plasmid pNOB8) (UniProt O93708). To be noted: FP: 25 mM Tris-HCl pH 7.5, 100 mM NaCl, 1 nM 5'-fluorescein DNA, with ATP/AMPPNP, ADP or no nucleotide, temperature not stated. Crystals: 20% PEG 4000, 10% ….
Data set [2] deals with pNOB8 ParA(K270E) (Sulfolobus NOB8H2, plasmid pNOB8) (UniProt O93708). To be noted: FP: 25 mM Tris-HCl pH 7.5, 100 mM NaCl, 1 nM 5'-fluorescein DNA, with ATP/AMPPNP, ADP or no nucleotide; temperature not stated. Crystals: 20% PEG 4000, 10% ….
Data set [3] concerns the target pNOB8 ParA(K58E) (Sulfolobus NOB8H2, plasmid pNOB8) (UniProt O93708). To be noted: FP: 25 mM Tris-HCl pH 7.5, 100 mM NaCl, 1 nM 5'-fluorescein DNA, with ATP/AMPPNP, ADP or no nucleotide; temperature not stated. Crystals: 20% PEG 4000, 10% ….
Data set [4] deals with pNOB8 ParA(R52E-K218E) (Sulfolobus NOB8H2, plasmid pNOB8) (UniProt O93708). To be noted: FP: 25 mM Tris-HCl pH 7.5, 100 mM NaCl, 1 nM 5'-fluorescein DNA, with ATP/AMPPNP, ADP or no nucleotide; temperature not stated. Crystals: 20% PEG 4000, 10% ….
Data set [5] concerns the target pNOB8 ParA(R52E-K221E) (Sulfolobus NOB8H2, plasmid pNOB8) (UniProt O93708). To be noted: FP: 25 mM Tris-HCl pH 7.5, 100 mM NaCl, 1 nM 5'-fluorescein DNA, with ATP/AMPPNP, ADP or no nucleotide; temperature not stated. Crystals: 20% PEG 4000, 10% ….

Consider “TGACGCCGGCGTCA (double strand) [14mer nsDNA, FP probe]”, for which the Kd worked out at 116 nM in data set [1] (AMPPNP, stoichiometry ~1 ParA dimer to 2 duplexes at 1 uM DNA); 120 nM in data set [1]; 300 nM in data set [2]; 274 nM in data set [3]; 3190 nM in data set [4]; 5930 nM in data set [5].
